Measured values taken from the Human Domainome abundance scans (Beltran et al. 2025).
± gives the uncertainty stated by the source.

B1: Nuclear receptor subfamily 4 group A member 2, residues 260 to 336; numbered along this chain, P43354 (parent)
chain: EGLCAVCGDNAACQHYGVRTCEGCKGFFKRTVQKNAKYVCLANKNCPVDKRRRNRCQYCRFQKCLAVGMVKEVVRTD

Variants of: B1
Experiment: abundance fitness (aPCA) (normalised: wild type 0, dead -1); higher = more abundant; growth selection in yeast, the domain comes from the species named
Conditions: Homo sapiens

Variant	abundance fitness
EGLCAVCGDNAACQHYGVRTCEGCKGFFKRTVQKNAKYVCLANKNCPVDKRRRNRCQYCRFQKCLAFGMVKEVVRTD [V67F]	-0.449 ± 0.13
EGLCAVCGDNAACQHYGVRTCEGCKGFFKRTVQKNAKYVCLANKNCPVDKRRRNRCQYCRFQKCLADGMVKEVVRTD [V67D]	-0.728 ± 0.31
EGLCAVCGDNAACQHYGVRTCEGCKGFFKRTVQKNAKYVCLANKNCPVDKRRRNRCQYCRFQKCLACGMVKEVVRTD [V67C]	-0.114 ± 0.072
EGLCAVCGDNAACQHYGVRTCEGCKGFFKRTVQKNAKYVCLANKNCPVDKRRRNRCQYCRFQKCLAGGMVKEVVRTD [V67G]	-0.261 ± 0.04
EGLCAVCGDNAACQHYGVRTCEGCKGFFKRTVQKNAKYVCLANKNCPVDKRRRNRCQYCRFQKCLAAGMVKEVVRTD [V67A]	-0.029 ± 0.063
EGLCAVCGDNAACQHYGVRTCEGCKGFFKRTVQKNAKYVCLANKNCPVDKRRRNRCQYCRFQKCLAEGMVKEVVRTD [V67E]	-0.017 ± 0.077
EGLCAVCGDNAACQHYGVRTCEGCKGFFKRTVQKNAKYVCLANKNCPVDKRRRNRCQYCRFQKSLAVGMVKEVVRTD [C64S]	-0.397 ± 0.16
EGLCAVCGDNAACQHYGVRTCEGCKGFFKRTVQKNAKYVCLANKNCPVDKRRRNRCQYCRFQKILAVGMVKEVVRTD [C64I]	-0.399 ± 0.36
EGLCAVCGDNAACQHYGVRTCEGCKGFFKRTVQKNAKYVCLANKNCPVDKRRRNRCQYCRFQKLLAVGMVKEVVRTD [C64L]	-0.372 ± 0.08
EGLCAVCGDNAACQHYGVRTCEGCKGFFKRTVQKNAKYVCLANKNCPVDKRRRNRCQYCRFQKRLAVGMVKEVVRTD [C64R]	-0.608 ± 0.14
EGLCAVCGDNAACQHYGVRTCEGCKGFFKRTVQKNAKYVCLANKNCPVDKRRRNRCQYCRFQKWLAVGMVKEVVRTD [C64W]	-0.859 ± 0.1
EGLCAVCGDNAACQHYGVRTCEGCKGFFKRTVQKNAKYVCLANKNCPVDKRRRNRCQYCRFQKCLGVGMVKEVVRTD [A66G]	-0.013 ± 0.042
EGLCAVCGDNAACQHYGVRTCEGCKGFFKRTVQKNAKYVCLANKNCPVDKRRRNRCQYCRFQKCLCVGMVKEVVRTD [A66C]	-0.21 ± 0.066
EGLCAVCGDNAACQHYGVRTCEGCKGFFKRTVQKNAKYVCLANKNCPVDKRRRNRCQYCRFQKCLEVGMVKEVVRTD [A66E]	-0.051 ± 0.14
EGLCAVCGDNAACQHYGVRTCEGCKGFFKRTVQKNAKYVCLANKNCPVDKRRRNRCQYCRFQKCLDVGMVKEVVRTD [A66D]	0.135 ± 0.11
EGLCAVCGDNAACQHYGVRTCEGCKGFFKRTVQKNAKYVCLANKNCPVDKRRRNRCQYCRFQKCLIVGMVKEVVRTD [A66I]	-0.099 ± 0.28
EGLCAVCGDNAACQHYGVRTCEGCKGFFKRTVQKNAKYVCLANKNCPVDKRRRNRCQYCRFQKCLLVGMVKEVVRTD [A66L]	0.005 ± 0.059
EGLCAVCGDNAACQHYGVRTCEGCKGFFKRTVQKNAKYVCLANKNCPVDKRRRNRCQYCRFQKCLFVGMVKEVVRTD [A66F]	-0.228 ± 0.14

Variant	abundance fitness
EGLCAVCGDNAACQHYGVRTCEGCKGFFKRTVQKNAKYVCLANKNCPVDKRRRNRCQYCRFQKCLWVGMVKEVVRTD [A66W]	-0.282 ± 0.074
EGLCAVCGDNAACQHYGVRTCEGCKGFFKRTVQKNAKYVCLANKNCPVDKRRRNRCQYCRFQKCLVVGMVKEVVRTD [A66V]	-0.17 ± 0.051
EGLCAVCGDNAACQHYGVRTCEGCKGFFKRTVQKNAKYVCLANKNCPVDKRRRNRCQYCRFQKCLTVGMVKEVVRTD [A66T]	-0.223 ± 0.24
EGLCAVCGDNAACQHYGVRTCEGCKGFFKRTVQKNAKYVCLANKNCPVDKRRRNRCQYCRFQKCLNVGMVKEVVRTD [A66N]	0.101 ± 0.45
EGLCAVCGDNAACQHYGVRTCEGCKGFFKRTVQKNAKYVCLANKNCPVDKRRRNRCQYCRFQKCLRVGMVKEVVRTD [A66R]	-0.114 ± 0.079
EGLCAVCGDNAACQHYGVRTCEGCKGFFKRTVQKNAKYVCLANKNCPVDKRRRNRCQYCRFQKCLMVGMVKEVVRTD [A66M]	-0.032 ± 0.2
EGLCAVCGDNAACQHYGVRTCEGCKGFFKRTVQKNAKYVCLANKNCPVDKRRRNRCQYCRFQKCLKVGMVKEVVRTD [A66K]	-0.2 ± 0.36
EGLCAVCGDNAACQHYGVRTCEGCKGFFKRTVQKNAKYVCLANKNCPVDKRRRNRCQYCRFQKCWAVGMVKEVVRTD [L65W]	-0.299 ± 0.059
EGLCAVCGDNAACQHYGVRTCEGCKGFFKRTVQKNAKYVCLANKNCPVDKRRRNRCQYCRFQKCNAVGMVKEVVRTD [L65N]	0.153 ± 0.32
EGLCAVCGDNAACQHYGVRTCEGCKGFFKRTVQKNAKYVCLANKNCPVDKRRRNRCQYCRFQKCEAVGMVKEVVRTD [L65E]	-0.038 ± 0.1
EGLCAVCGDNAACQHYGVRTCEGCKGFFKRTVQKNAKYVCLANKNCPVDKRRRNRCQYCRFQKCVAVGMVKEVVRTD [L65V]	-0.096 ± 0.041
EGLCAVCGDNAACQHYGVRTCEGCKGFFKRTVQKNAKYVCLANKNCPVDKRRRNRCQYCRFQKCGAVGMVKEVVRTD [L65G]	-0.264 ± 0.037
EGLCAVCGDNAACQHYGVRTCEGCKGFFKRTVQKNAKYVCLANKNCPVDKRRRNRCQYCRFQKCIAVGMVKEVVRTD [L65I]	-0.274 ± 0.39
EGLCAVCGDNAACQHYGVRTCEGCKGFFKRTVQKNAKYVCLANKNCPVDKRRRNRCQYCRFQKCSAVGMVKEVVRTD [L65S]	-0.308 ± 0.1
EGLCAVCGDNAACQHYGVRTCEGCKGFFKRTVQKNAKYVCLANKNCPVDKRRRNRCQYCRFQKCYAVGMVKEVVRTD [L65Y]	-0.317 ± 0.18
EGLCAVCGDNAACQHYGVRTCEGCKGFFKRTVQKNAKYVCLANKNCPVDKRRRNRCQYCRFQKCAAVGMVKEVVRTD [L65A]	-0.146 ± 0.081
EGLCAVCGDNAACQHYGVRTCEGCKGFFKRTVQKNAKYVCLANKNCPVDKRRRNRCQYCRFQKCMAVGMVKEVVRTD [L65M]	-0.262 ± 0.15
EGLCAVCGDNAACQHYGVRTCEGCKGFFKRTVQKNAKYVCLANKNCPVDKRRRNRCQYCRFQKCTAVGMVKEVVRTD [L65T]	-0.659 ± 0.32
